Laboratory results published in the nanobody polyreactivity screen of Harvey et al. (2022).

Experiment: yeast display, Sf9 membrane polyspecificity reagent, FACS + sequencing; frameworks hold sequencing errors
Summary of the method: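 In a synthetic yeast display library (Saccharomyces cerevisiae BJ5465), nanobody expression was induced with galactose for 36–48 hours. FACS gates were set low and high (top ~1%) using anti-HA fluorescence for expression and streptavidin fluorescence for binding of the Sf9 membrane reagent. Each polyreactivity label is drawn from the gate of origin.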

Row | Sequence | polyreactivity (PSR sort gate)
1 | QVQLVESGGGLVQAGGSLRLSCAASGRIFRYNAMGWYRQAPGKERELVATITDGGSTSYADSVKGRFTISRDNAKNTVYLQMNSLKPEDTAVYYCARDPLPSYWKVWSRPTFDYWGQGTQVTVSS | low polyreactivity
2 | QVQLVESGGGLVQAGGSLRLSCAASGRIFRYNAMGWYRQAPGKETELVAVFSGSGGSTYYADSVKGRFTISRDNAKHTVYVQMNSLKPEDTAVYYCAAQFHVSWYNYWGQGTQVTVSS | low polyreactivity
3 | QVQLVESGGGLVQAGGSLRLSCAASGRIFRYYAMGWYIQAPGKERELVAAISKSGGGTFYADSVKGRFTISRDNAKNTVYLQMNSLKPEDTEVYYCAARDKGLGKHDYWGQGTQVTVSS | low polyreactivity
4 | QVQLVESGGGLVQAGGSLRLSCAASGRIFRYYAMGWYRQAPGKEREFVAAINSSGVNTYYADSVKGRFTISRDNAKNTVYLQMNSLKPEDTAVYYCAFLGMDYWGQGTQVTVSS | high polyreactivity
5 | QVQLVESGGGLVQAGGSLRLSCAASGRIFRYYAMGWYRQAPGKERELVAAINSGGSTKYADSVKGRFTISRDNAKNTVYLQMNSLTPEDTAVYYCNKDHAFSRYWYGGFDYWGQGTQVTVSS | high polyreactivity
6 | QVQLVESGGGLVQAGGSLRLSCAASGRIFRYYAMGWYRQAPGKERELVAAIRGGGSTYYADSVKGRFTISRDNAKNTVYLQMNSLKPEDTAVYYCAAPLIISTLWYKRYDYWGQGTQVTVSS | high polyreactivity
7 | QVQLVESGGGLVQAGGSLRLSCAASGRIFRYYAMGWYRQAPGKERELVAAISGTGGNTYYADSVKGRSTISRDNAKNTVYLQMNSLKPEDTAVYYCAADQEWYYYFDSFAYYILDYWGQGTQVTVSS | high polyreactivity
8 | QVQLVESGGGLVQAGGSLRLSCAASGRIFRYYAMGWYRQAPGKERELVAAISKTGGSTYYADSVKGRFTISRDNAKNTVYLQMNSLKPEDTAVYYCAAVGRYSYLSSEGDYWGQGTQVTVSS | high polyreactivity
9 | QVQLVESGGGLVQAGGSLRLSCAASGRIFRYYAMGWYRQAPGKERELVAAISSGGRTYYADSVKGRFTISRDNAKNTVYLQMNSLKPEDTAVYYCNAYAYHAGGDYWGQGTQVTVSS | high polyreactivity
10 | QVQLVESGGGLVQAGGSLRLSCAASGRIFRYYAMGWYRQAPGKERELVAAISSGVGNTYYADSVKWRFTISRDNAKNTVYLQKNSLKPEDTAVYYCNAKWRKFGTVRYDYWGQGTQVTVSS | high polyreactivity
11 | QVQLVESGGGLVQAGGSLRLSCAASGRIFRYYAMGWYRQAPGKERELVADSTRGGGSTYYADSVKGRFTISRDNAKNTVYLQMNSLKPEDTAVYYCAKDGSGGLPVLYRYRYDYWGQGTQVTVSS | high polyreactivity
12 | QVQLVESGGGLVQAGGSLRLSCAASGRIFRYYAMGWYRQAPGKERELVAGISRSGGRTYYADSVKGRFTISRDNAKNTVYLQMNSLKPEDTAVYYCNASRGYPYHYDYWGQGTQVTVSS | high polyreactivity
13 | QVQLVESGGGLVQAGGSLRLSCAASGRIFRYYSMGWYRQAPGKERELVAAISGGGSTYYADSVKGRFTISRDNAKNTVYLQMNSLKPEDTAVYYCAALRSSQSKGDYWGQGTQVTVSS | high polyreactivity
14 | QVQLVESGGGLVQAGGSLRLSCAASGRIFRYYTMGWYRQAPGKERELVAAIRLAGSTTYYADSVKGRFTISRDNAKNTVYLQMNSLNPEDSAVYSCTTRYPVPSGYDYWGHGTQVTVSS | high polyreactivity
15 | QVQLVESGGGLVQAGGSLRLSCAASGRIFRYYTMGWYTPAPGNERELVAAISSSGGRTYYADSVKGRFTISRDNAKNTVYLQMNSLKPEDTAVYYCNAYRRFSAFDYWGQGTQVTVTS | high polyreactivity
16 | QVQLVESGGGLVQAGGSLRLSCAASGRIFSAYAMGWYRQAPGKEREFVAAISSRGGSTNYADSVKGRFTISRDNANNTVYLHMNSLKPEDTAVYYCNARYVQWYWIGKVIHIDNDYWGQGTQVNVSS | low polyreactivity
17 | QVQLVESGGGLVQAGGSLRLSCAASGRIFSAYVMGWYRQAPGKERELVAAISSGGSRTSYADSVKGRVTISRDNAKNTVYLQMISLKPEDTAVYYCAASATFWGQGTQVNVSS | high polyreactivity
18 | QVQLVESGGGLVQAGGSLRLSCAASGRIFSDYAMGWYRQAPGKERELVATISASGGSTYYADSVKGRFTVSRDNAKNSVYLQMNSLKPEDTAVYYCAGDYEGYNFDYWGQGTQVTVSS | low polyreactivity
19 | QVQLVESGGGLVQAGGSLRLSCAASGRIFSEYAMGWYRQAPGKERELVAAISRRGGRTYYADSVKGRFTISRDNAKNTVYLQMNSLKPEETAVYYCAAKIIWFTIRHGSAGFKYWGQGTQVTVSS | high polyreactivity
20 | QVQLVESGGGLVQAGGSLRLSCAASGRIFSFNAMGWYRQAPGKERELVASGGSTYADSVKGRFTISRDNAKNTVYLQMNSLKPEETAVYYCAADPFYYFPSPFDYWGQGTQVTVSS | low polyreactivity
21 | QVQLVESGGGLVQAGGSLRLSCAASGRIFSFYAMGWKRQAPGKERELVAAITWGDGSTYYADSVKGRFTISRDNAKNTVYLQMNSLKPEDTAVYYCNKTYIDTTVYDVIMDYWGQGTQVTVSS | low polyreactivity
22 | QVQLVESGGGLVQAGGSLRLSCAASGRIFSFYAMGWYRQAPGKERELVAAITYTDGSTYADSVKGRFTISRDNAKNTVYLQMNSLKPEDTAVYYCATRYRWTPYDYWGQGTQVTVSS | low polyreactivity

Row | Sequence | polyreactivity (PSR sort gate)
23 | QVQLVESGGGLVQAGGSLRLSCAASGRIFSGNAMGWYRQAPGKERELVAAISWSGGSTYYADSVKGRFTISRDNAKNSVYLQMNSLKPEDTAVSYCNAPGYRRYGSRMGYWGQGTQVTVSS | high polyreactivity
24 | QVQLVESGGGLVQAGGSLRLSCAASGRIFSGYAMGWYRQATGKERELVAAITSVGSTNYADSVKGRFTISRDNAKNTVYLQMNSLKPEDTAVYYCAARSQIYYRYRSYGYWGQGTQVTVSS | high polyreactivity
25 | QVQLVESGGGLVQAGGSLRLSCAASGRIFSGYTMGWYRQAPGKERELVAAITRSGGSTYYADSVKGRFTISRDNAKNTVYLQMISLKPEDTAVYYCNKVSYRHMDSWGQGTQVTVSS | high polyreactivity
26 | QVQLVESGGGLVQAGGSLRLSCAASGRIFSHNAMGWYRQAPGKERELVAAITGSGGTTYYADSVKGRFKISRDNAKNTVYLQMNSLKPEDTAVYYCAADWQQLSYVWRSQRRYNYWGQGTQVTVSS | low polyreactivity
27 | QVQLVESGGGLVQAGGSLRLSCAASGRIFSIYAMGWYRQAPGKEREFVAAITQSGGSTYYADSVKGRFTISRDNAKNTVYLQMNSLKPEDTAVYYCAADEWGVRSEYDYWGQGTQVTVSS | low polyreactivity
28 | QVQLVESGGGLVQAGGSLRLSCAASGRIFSIYAMGWYRQAPVKERELVAAISKRGGSTSYADSVKGRFTISRDNAKNTVYLQMNSLKPEDTAVYYCNARGWIPARGWDDYYWGQGTQVTVSS | high polyreactivity
29 | QVQLVESGGGLVQAGGSLRLSCAASGRIFSIYGMGWYRQAPGKEREFVASITYSGGSTYYADSVKGRFTISRDYAKNTVYLQMNSLKPEDTAVYYCNADIEKSYNYWGQGTQVTVSS | low polyreactivity
30 | QVQLVESGGGLVQAGGSLRLSCAASGRIFSIYGMGWYRQAPGKERELVAVISGSVAITYYADSVKGRFTISRDNAKNTVYLQMNSLKPEDTAVYYCAAVYQSRLWARYYYWGQGSQVTVSS | high polyreactivity
31 | QVQLVESGGGLVQAGGSLRLSCAASGRIFSIYGMGWYRQAPGKERELVAVISGSVGITYYADSVKGRFTISRDNAKNTVYLQMNSLKPEDTAVYYCNAKFRRRKYDYWGQGTQVTVSS | high polyreactivity
32 | QVQLVESGGGLVQAGGSLRLSCAASGRIFSKYAMGWYRQAPGKERELVAAIRSGGRTYYADSVKGRFTISRDNAKNTVYLQMNSLKPEDTAVYYCAKGTFRYPFSFTFLGYDYWGQGTQVTVSS | high polyreactivity
33 | QVQLVESGGGLVQAGGSLRLSCAASGRIFSLYAMGWYRQAPGKERELVAAISWSGGTTYDADSVKGRFTISRDNAKNTVYLQMNSLKPEDTAVYYCAAQYIGKKRFNYWGQGTQVTVSS | high polyreactivity
34 | QVQLVESGGGLVQAGGSLRLSCAASGRIFSNNAMGWYRQAPGKERELVATITGSGGRTYYADSVKGRFTISRDIAKNSVYLQMNSLKPEDTAVYYCNADLYSYYWRVRYGLDYWGQGTQVTVSS | high polyreactivity
35 | QVQLVESGGGLVQAGGSLRLSCAASGRIFSNYAMGWYRHAPGKEREFVAAISGSGGITYYADSVKGRFTISRDNAKNTFYLQMNSLKPEDTAVYYCARRLHYVPLISYNYWGQGTQVTVSS | low polyreactivity
36 | QVQLVESGGGLVQAGGSLRLSCAASGRIFSNYAMGWYRQAPGKERELVAAISRGGGRTFYADSVKGRFTISRDNAKNTVYLQMNSLKPEDTAVYYCATRSYYVKGDYWGQGTQVNVSS | high polyreactivity
37 | QVQLVESGGGLVQAGGSLRLSCAASGRIFSPNAMGWYRQAPGKERELVAAITRGGSTNYADSVKGRFTISRDNAKNTVYLQMNSLKPEDTAVYYCAAQLAKTIRGRGYNSWGQGTKVTVSS | low polyreactivity
38 | QVQLVESGGGLVQAGGSLRLSCAASGRIFSQNAMGWYRKAPGKERELVAAIRYSTGSTYYADSVKGRFTISRDNAKNTVYLQMNSLKPEDTAVYYCAADRWVSGYRRPRRGQAHYYWGQGTQVTVSS | high polyreactivity
39 | QVQLVESGGGLVQAGGSLRLSCAASGRIFSQYAMGWYRQAPGKERELVAAISRRTGSTYYADSVKVRFTISRDNAKNTVYLQMNSLKPDDTAVYFCNKARLGWSYRQDDYWGQGTQVTVSS | high polyreactivity
40 | QVQLVESGGGLVQAGGSLRLSCAASGRIFSRNAMGWYRKAPGKERELVATISAGGGRTSYADSVKGRFTISRDNAKNTVYLQMNSLKPEDTADYYCAARGQVGYYWGQGTQVTVSS | high polyreactivity
41 | QVQLVESGGGLVQAGGSLRLSCAASGRIFSRNAMGWYRQAPGKERDLVAAITWRGGSTNYADSVKGRFTISRDNAKNTVYLQMNSLKPEDTAVYYCAARISRYPQDDSDYWGQGTQVTVSS | high polyreactivity
42 | QVQLVESGGGLVQAGGSLRLSCAASGRIFSRNAMGWYRQAPGKERELVAAISGSGTSTYYAVSVKGRFTISRDNAKNTVYLQMNSLKPEDTAVSYCAADYPAVISIRRYDYWGQGTQVTVSS | low polyreactivity
43 | QVQLVESGGGLVQAGGSLRLSCAASGRIFSRNAMGWYRQAPGKERELVAAITRIGGSTYYADSVKGRFTISRDTAKNTVYLQMNSRKPEDTAVYYSAARGSGKYGWGQGTQVTVSS | high polyreactivity
